Sequences and labels used below:
B1: Twister Ribozyme (parent)
chain: AACACUGCCAAUGCCGGUCCCAAGCCCGGAUAAAAGUGGAGGGGGCGG

Self-cleavage data for 167 variants are collected here from the RNAGym collection of RNA variant scans (doi:10.7554/elife.80360).

Variants of B1 are the subject of this data set. Kind of data set: self-cleavage, relative activity (ratio to wild type); higher = more cleavage; co-transcriptional.
As for A4G A11U, the self-cleavage was determined as 0.996.

As for A4G A11C, the self-cleavage stood at 0.663.

Regarding C5A G17U, the self-cleavage turned out to be 0.0729.

In the case of C5A G17A, the self-cleavage was 0.0903.

For C5A C8G, the self-cleavage is 0.106.

Regarding A4G G45C, the self-cleavage was 0.294.

As to A4G G45U, the self-cleavage was 0.741.

Consider A4G C25U, for which the self-cleavage is 0.595.

Turning to A4U A11C, the self-cleavage worked out at 0.0933.

With A4U A11U, the self-cleavage came out at 0.193.

In the case of A4U A11G, the self-cleavage was determined as 0.184.

As for C5G C14U, the self-cleavage turned out to be 0.793.

C5A U6C: the self-cleavage came out at 0.112.

In the case of C5A U6G, the self-cleavage amounted to 0.154.

Take C5A U6A: the self-cleavage is 0.0843.

For the variant C5G G41A, the self-cleavage turned out to be 0.168.

Take C5A G28A: the self-cleavage was 0.232.

For the variant C5A G28U, the self-cleavage is 0.282.

For C5G A35U, the self-cleavage was 0.637.

Take C5G C8A: the self-cleavage worked out at 0.15.

Consider C5A C20U, for which the self-cleavage turned out to be 0.465.

For A4G C21U, the self-cleavage is 0.118.

Consider A4C G29C, for which the self-cleavage was 0.0879.

With A4C G29U, the self-cleavage worked out at 0.145.

With A4C G29A, the self-cleavage is 0.168.

Consider A4C G43C, for which the self-cleavage turned out to be 0.0981.

Regarding C5A G41A, the self-cleavage was 0.107.

Consider C5A G41U, for which the self-cleavage was determined as 0.132.

A4U C27G: the self-cleavage is 0.115.

As for A4U C27U, the self-cleavage stood at 0.0803.

In the case of C5G G36A, the self-cleavage came out at 0.732.

On to C5G G36C, for which the self-cleavage was determined as 0.966.

For A4C C21U, the self-cleavage came out at 0.0583.

On to A4C C21A, for which the self-cleavage was determined as 0.105.

Regarding A4C C21G, the self-cleavage was 0.0577.

For the variant A4G C46G, the self-cleavage came out at 1.15.

On to A4G C46U, for which the self-cleavage was determined as 0.775.

C5G A10G: the self-cleavage was found to be 1.17.

Regarding C5G A10U, the self-cleavage was 0.69.

Take A4U U31G: the self-cleavage is 0.161.

Consider A4U U31A, for which the self-cleavage turned out to be 0.143.

For the variant A4G C27G, the self-cleavage turned out to be 0.0421.

Take C5G U31A: the self-cleavage worked out at 0.634.

For the variant A4G A30C, the self-cleavage was 0.736.

Consider A4G A30U, for which the self-cleavage is 0.762.

For the variant C5A G45C, the self-cleavage came to 0.16.

As to C5A G45A, the self-cleavage turned out to be 0.532.

In the case of C5G G48U, the self-cleavage worked out at 0.627.

Regarding C5G G7C, the self-cleavage turned out to be 0.0519.

Turning to A4C G44A, the self-cleavage was determined as 0.165.

On to C5A U18C, for which the self-cleavage is 0.106.

As for A4C U12C, the self-cleavage is 0.228.

With A4U C25G, the self-cleavage stood at 0.0782.

As to A4U C25U, the self-cleavage is 0.0507.

In the case of C3U U31C, the self-cleavage worked out at 0.391.

Turning to C3U U31G, the self-cleavage stood at 0.445.

Consider C5A U37C, for which the self-cleavage was 0.124.

With C5A U37A, the self-cleavage was determined as 0.547.

C5A U37G: the self-cleavage was determined as 0.671.

Take A4G A32G: the self-cleavage is 1.05.

For A4C C20G, the self-cleavage came to 0.0372.

As for A4C C20A, the self-cleavage worked out at 0.0653.

For the variant A4G C15G, the self-cleavage worked out at 0.0751.

As for A4G C15U, the self-cleavage stood at 0.944.

As for A4C U18C, the self-cleavage is 0.0605.

For the variant A4C U18G, the self-cleavage was 0.111.

Regarding A4C U18A, the self-cleavage worked out at 0.0406.

With C5A A40G, the self-cleavage came out at 0.0921.

Turning to A4C G36A, the self-cleavage is 0.103.

In the case of A4C G36C, the self-cleavage was found to be 0.0766.

For A4C C25G, the self-cleavage amounted to 0.0395.

As to A4C C25A, the self-cleavage amounted to 0.0458.

For C5A C27U, the self-cleavage is 0.249.

Take A4G A23U: the self-cleavage is 0.358.

In the case of A4G A23C, the self-cleavage is 0.0625.

As for C5G G47A, the self-cleavage stood at 0.547.

For the variant C5A C15A, the self-cleavage was determined as 0.214.

In the case of C5A C15G, the self-cleavage amounted to 0.0768.

For A4C A34U, the self-cleavage stood at 0.0292.

For the variant A4C A34G, the self-cleavage was 0.0947.

Turning to C5G A23U, the self-cleavage amounted to 0.136.

Consider C5G A23G, for which the self-cleavage is 0.133.

Turning to C5G A23C, the self-cleavage stood at 0.0471.

As to C5A U12C, the self-cleavage is 0.462.

For C5A U12A, the self-cleavage came to 0.764.

As for C5G A32G, the self-cleavage amounted to 0.749.

Regarding A4U U18C, the self-cleavage was determined as 0.027.

As to A4U U18A, the self-cleavage turned out to be 0.0531.

Consider A4U U18G, for which the self-cleavage was determined as 0.0369.

Take C5A A10G: the self-cleavage was determined as 0.705.

With C5A A10U, the self-cleavage came to 0.39.

A4G G41C: the self-cleavage came to 0.181.

For the variant A4G G41A, the self-cleavage was determined as 0.244.

For the variant C5G C26A, the self-cleavage was 0.126.

As for C5G C26U, the self-cleavage turned out to be 0.104.

For A4G G28C, the self-cleavage turned out to be 0.529.

With C5G U6A, the self-cleavage was determined as 0.404.

In the case of C5G U6G, the self-cleavage is 0.232.

Take A4U G7C: the self-cleavage was determined as 0.0628.

For A4U G7A, the self-cleavage worked out at 0.1.

On to C5A C46G, for which the self-cleavage was 0.689.

On to A4U G38U, for which the self-cleavage was 0.138.

Turning to A4U G38C, the self-cleavage was 0.252.

Turning to C5G G39U, the self-cleavage was determined as 0.134.

In the case of C5G G39C, the self-cleavage was 0.106.

Consider C5G, for which the self-cleavage is 0.85.

C5A: the self-cleavage is 0.66.

Regarding A4G U12C, the self-cleavage is 0.811.

Regarding A4G U6C, the self-cleavage is 0.104.

For the variant C5G C15G, the self-cleavage came out at 0.0337.

With A4C A11C, the self-cleavage was determined as 0.0104.

For A4C A11U, the self-cleavage turned out to be 0.16.

Turning to A4G G48C, the self-cleavage turned out to be 1.18.

Take A4G G48A: the self-cleavage came to 0.955.

On to C5A G16A, for which the self-cleavage was found to be 0.301.

With C5A G16C, the self-cleavage was determined as 0.098.

Consider C5A G16U, for which the self-cleavage was 0.237.

For C5G C25U, the self-cleavage was determined as 0.411.

Regarding A4G C26G, the self-cleavage came to 0.169.

Consider A4G C26A, for which the self-cleavage was determined as 0.293.

As for A4G C26U, the self-cleavage came to 0.252.

As to A4C U31A, the self-cleavage worked out at 0.182.

On to A4C U31G, for which the self-cleavage is 0.177.

A4U G29C: the self-cleavage stood at 0.0635.

Take A4U G29U: the self-cleavage was found to be 0.094.

Consider C5G G16C, for which the self-cleavage was 0.0784.

In the case of C5G G16U, the self-cleavage was 0.0938.

As to C5G G45C, the self-cleavage is 0.222.

For C5G G17A, the self-cleavage came to 0.0746.

For A4C A35G, the self-cleavage was 0.451.

Take A4C C5G: the self-cleavage worked out at 0.0446.

A4C C5U: the self-cleavage came to 0.701.

As for A4U A40G, the self-cleavage came to 0.0581.

For C5A C25G, the self-cleavage was 0.0605.

C5G U18A: the self-cleavage was 0.104.

As for C5G U18C, the self-cleavage stood at 0.196.

As to C5G U18G, the self-cleavage is 0.0734.

As to A4U C20U, the self-cleavage worked out at 0.0245.

Regarding A4U C20G, the self-cleavage stood at 0.0603.

Regarding C5A A35U, the self-cleavage was 0.508.

Take C5A A35G: the self-cleavage was determined as 0.328.

On to A4C C8A, for which the self-cleavage amounted to 0.119.

Regarding A4C C8U, the self-cleavage worked out at 0.108.

As to C5G G13C, the self-cleavage came to 0.0798.

Take C5G G13A: the self-cleavage was 0.115.

Regarding A4C A40G, the self-cleavage was found to be 0.0825.

As to A4C A40U, the self-cleavage amounted to 0.0853.

For A4C A40C, the self-cleavage worked out at 0.0698.

Take C5A C14G: the self-cleavage is 0.0565.

As to C5A G42U, the self-cleavage stood at 0.138.

On to A4G G13U, for which the self-cleavage was determined as 0.327.

For A4G G13C, the self-cleavage worked out at 0.244.

Consider C3U G47C, for which the self-cleavage was 0.233.

For the variant C5G G28C, the self-cleavage was 0.212.

Regarding C5G G28U, the self-cleavage was found to be 0.279.

Take A4G C9A: the self-cleavage was 0.698.

As to C5G C9G, the self-cleavage was determined as 0.125.

On to C5G C9A, for which the self-cleavage was found to be 0.167.

As for A4U C26U, the self-cleavage is 0.0595.

On to A4U C26G, for which the self-cleavage came out at 0.0523.

For C5A C26A, the self-cleavage was found to be 0.1.

As for C5A C26U, the self-cleavage is 0.0777.

Consider C5A C26G, for which the self-cleavage is 0.0639.

Take A4C G42A: the self-cleavage was found to be 0.0686.

In the case of A4C G48C, the self-cleavage was found to be 0.31.

As for A4C G48A, the self-cleavage amounted to 0.134.

Regarding A4G A33U, the self-cleavage was 0.858.
